Experimental data as given in US20180163218.

Key:
Assay in all cases: cell_activity
[1] = tested on: eZFN4 zinc finger nuclease (FokI); settings: soybean F1, AtUbi3 promoter; chimeric 4.43%; with CsVMV promoter 0.00% complete, 1.58% chimeric
[2] = tested on: eZFN4-HF zinc finger nuclease (high fidelity FokI); settings: soybean F1, AtUbi10 promoter; chimeric excision 10.68%
[3] = tested on: eZFN14 zinc finger nuclease (FokI); settings: soybean F1, CsVMV promoter; complete excision 0.00%
[4] = tested on: eZFN2 zinc finger nuclease (FokI); settings: maize; two identical sites flanking aad-1 cassette; 23 of 621 plants

GCCTTTTGCAGTTTATCTCTATGCCCGGGACAAGTG (double strand) [eZFN4 binding site]
activity (% complete excision) [1]: 0.13 | activity (% complete excision) [2]: 1.23

TGGTCATCCTCATCCTGTCTATGCCCGGGACAAGTG (double strand) [eZFN14 binding site]
activity (% chimeric excision) [3]: 2.82

AAGACTCCCGCCCATCTCTCTATGCCCGGGACAAGTG (double strand) [eZFN2 binding site]
activity (% F1 plants with aad-1 excised) [4]: 3.7
